Laboratory results reported in PMC5268738 (2017).
Square brackets hold non-standard residues; d marks the D form. Ends that are not written are not given here. pT = C[C@@H](OP(=O)(O)O)[C@H](N)C(=O)O; pS = N[C@@H](COP(=O)(O)O)C(=O)O

T1: human Mad1^CTD (human, UniProt Q9Y6D9 597-718)
T1 chain: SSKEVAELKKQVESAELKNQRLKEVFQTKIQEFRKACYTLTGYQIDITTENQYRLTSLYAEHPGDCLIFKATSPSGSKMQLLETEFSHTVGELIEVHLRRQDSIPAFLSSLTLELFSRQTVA


Target: T1, human Mad1^CTD
Assay: ITC

Kd	Binder
3.1 µM	CKVQP[pS]P[pT]VHTKEALGFIMNMFQA [human Bub1 CM phospho-peptide pS459-pT461]
15.7 µM	CKVQPSP[pT]VHTKEALGFIMNMFQA [human Bub1 CM phospho-peptide pT461]
